From patent US20140087995A1 (published 2014)
Numbered stars: 1 amine (or outer) side, 2 acyl side, 3 side chain; on linkers, the order of the positions; unused ones are H or OH. Bridge positions count the residues as written; N and C are the ends. Side chains are listed from the residue outwards. Ends that are not written are not given here. * marks the point of attachment. C20 diacid = O=C(O)CCCCCCCCCCCCCCCCCCC(=O)*; γGlu = O=C(O)[C@H](CCC(=O)[*:2])N[*:1]

T1: human calcitonin receptor (human, UniProt P30988 25-474)
T1 construct: whole, on cells; Used as cell membranes; also called hCTR; hCT
T1 sequence (looked up): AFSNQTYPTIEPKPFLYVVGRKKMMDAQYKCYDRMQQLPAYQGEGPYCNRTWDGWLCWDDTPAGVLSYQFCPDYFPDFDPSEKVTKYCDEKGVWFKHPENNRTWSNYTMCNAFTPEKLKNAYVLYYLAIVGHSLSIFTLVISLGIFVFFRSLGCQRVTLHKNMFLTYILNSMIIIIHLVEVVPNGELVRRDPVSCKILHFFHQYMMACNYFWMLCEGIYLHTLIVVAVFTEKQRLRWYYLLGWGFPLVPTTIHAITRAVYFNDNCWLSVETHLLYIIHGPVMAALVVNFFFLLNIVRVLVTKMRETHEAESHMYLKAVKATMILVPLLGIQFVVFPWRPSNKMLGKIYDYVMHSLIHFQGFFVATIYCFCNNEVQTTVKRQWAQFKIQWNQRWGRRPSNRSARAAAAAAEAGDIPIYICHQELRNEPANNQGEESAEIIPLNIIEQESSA

B1: N^ε1-[(4S)-4-carboxy-4-[[(4S)-4-carboxy-4-(19-carboxynonadecanoylamino)butanoyl]amino]butanoyl]-[Glu14,Arg17,Pro21,Pro27,Arg34]-h-amylin (peptide)
peptide: K([γGlu-γGlu-C20 diacid])CNTATCATQRLAEFLRHSSPNFGAIPSSTNVGRNTY-NH2
modifications: disulfide 2-7; N-terminus assumed
SMILES: CC[C@H](C)[C@H](NC(=O)[C@H](C)NC(=O)CNC(=O)[C@H](Cc1ccccc1)NC(=O)[C@H](CC(N)=O)NC(=O)[C@@H]1CCCN1C(=O)[C@H](CO)NC(=O)[C@H](CO)NC(=O)[C@H](Cc1c[nH]cn1)NC(=O)[C@H](CCCNC(=N)N)NC(=O)[C@H](CC(C)C)NC(=O)[C@H](Cc1ccccc1)NC(=O)[C@H](CCC(=O)O)NC(=O)[C@H](C)NC(=O)[C@H](CC(C)C)NC(=O)[C@H](CCCNC(=N)N)NC(=O)[C@H](CCC(N)=O)NC(=O)[C@@H](NC(=O)[C@H](C)NC(=O)[C@@H]1CSSC[C@H](NC(=O)[C@@H](N)CCCCNC(=O)CC[C@H](NC(=O)CC[C@H](NC(=O)CCCCCCCCCCCCCCCCCCC(=O)O)C(=O)O)C(=O)O)C(=O)N[C@@H](CC(N)=O)C(=O)N[C@@H]([C@@H](C)O)C(=O)N[C@@H](C)C(=O)N[C@@H]([C@@H](C)O)C(=O)N1)[C@@H](C)O)C(=O)N1CCC[C@H]1C(=O)N[C@@H](CO)C(=O)N[C@@H](CO)C(=O)N[C@H](C(=O)N[C@@H](CC(N)=O)C(=O)N[C@H](C(=O)NCC(=O)N[C@@H](CCCNC(=N)N)C(=O)N[C@@H](CC(N)=O)C(=O)N[C@H](C(=O)N[C@@H](Cc1ccc(O)cc1)C(N)=O)[C@@H](C)O)C(C)C)[C@@H](C)O
notes: also called compound 88
B2: N^ε1-[(4S)-4-carboxy-4-[[(4S)-4-carboxy-4-(19-carboxynonadecanoylamino)butanoyl]amino]butanoyl]-[Glu14,Arg17,Pro21,Pro27,His34]-h-amylin (peptide)
peptide: K([γGlu-γGlu-C20 diacid])CNTATCATQRLAEFLRHSSPNFGAIPSSTNVGHNTY-NH2
modifications: disulfide 2-7; N-terminus assumed
SMILES: CC[C@H](C)[C@H](NC(=O)[C@H](C)NC(=O)CNC(=O)[C@H](Cc1ccccc1)NC(=O)[C@H](CC(N)=O)NC(=O)[C@@H]1CCCN1C(=O)[C@H](CO)NC(=O)[C@H](CO)NC(=O)[C@H](Cc1c[nH]cn1)NC(=O)[C@H](CCCNC(=N)N)NC(=O)[C@H](CC(C)C)NC(=O)[C@H](Cc1ccccc1)NC(=O)[C@H](CCC(=O)O)NC(=O)[C@H](C)NC(=O)[C@H](CC(C)C)NC(=O)[C@H](CCCNC(=N)N)NC(=O)[C@H](CCC(N)=O)NC(=O)[C@@H](NC(=O)[C@H](C)NC(=O)[C@@H]1CSSC[C@H](NC(=O)[C@@H](N)CCCCNC(=O)CC[C@H](NC(=O)CC[C@H](NC(=O)CCCCCCCCCCCCCCCCCCC(=O)O)C(=O)O)C(=O)O)C(=O)N[C@@H](CC(N)=O)C(=O)N[C@@H]([C@@H](C)O)C(=O)N[C@@H](C)C(=O)N[C@@H]([C@@H](C)O)C(=O)N1)[C@@H](C)O)C(=O)N1CCC[C@H]1C(=O)N[C@@H](CO)C(=O)N[C@@H](CO)C(=O)N[C@H](C(=O)N[C@@H](CC(N)=O)C(=O)N[C@H](C(=O)NCC(=O)N[C@@H](Cc1c[nH]cn1)C(=O)N[C@@H](CC(N)=O)C(=O)N[C@H](C(=O)N[C@@H](Cc1ccc(O)cc1)C(N)=O)[C@@H](C)O)C(C)C)[C@@H](C)O
notes: also called compound 87
B3: N^ε1-[(4S)-4-carboxy-4-[[(4S)-4-carboxy-4-(19-carboxynonadecanoylamino)butanoyl]amino]butanoyl]-[Glu14,Arg17,Pro21,Pro27,Pro34,Arg35]-h-amylin (peptide)
peptide: K([γGlu-γGlu-C20 diacid])CNTATCATQRLAEFLRHSSPNFGAIPSSTNVGPRTY-NH2
modifications: disulfide 2-7; N-terminus assumed
SMILES: CC[C@H](C)[C@H](NC(=O)[C@H](C)NC(=O)CNC(=O)[C@H](Cc1ccccc1)NC(=O)[C@H](CC(N)=O)NC(=O)[C@@H]1CCCN1C(=O)[C@H](CO)NC(=O)[C@H](CO)NC(=O)[C@H](Cc1c[nH]cn1)NC(=O)[C@H](CCCNC(=N)N)NC(=O)[C@H](CC(C)C)NC(=O)[C@H](Cc1ccccc1)NC(=O)[C@H](CCC(=O)O)NC(=O)[C@H](C)NC(=O)[C@H](CC(C)C)NC(=O)[C@H](CCCNC(=N)N)NC(=O)[C@H](CCC(N)=O)NC(=O)[C@@H](NC(=O)[C@H](C)NC(=O)[C@@H]1CSSC[C@H](NC(=O)[C@@H](N)CCCCNC(=O)CC[C@H](NC(=O)CC[C@H](NC(=O)CCCCCCCCCCCCCCCCCCC(=O)O)C(=O)O)C(=O)O)C(=O)N[C@@H](CC(N)=O)C(=O)N[C@@H]([C@@H](C)O)C(=O)N[C@@H](C)C(=O)N[C@@H]([C@@H](C)O)C(=O)N1)[C@@H](C)O)C(=O)N1CCC[C@H]1C(=O)N[C@@H](CO)C(=O)N[C@@H](CO)C(=O)N[C@H](C(=O)N[C@@H](CC(N)=O)C(=O)N[C@H](C(=O)NCC(=O)N1CCC[C@H]1C(=O)N[C@@H](CCCNC(=N)N)C(=O)N[C@H](C(=O)N[C@@H](Cc1ccc(O)cc1)C(N)=O)[C@@H](C)O)C(C)C)[C@@H](C)O
notes: also called compound 110
B4: N^ε1-[(4S)-4-carboxy-4-[[(4S)-4-carboxy-4-(19-carboxynonadecanoylamino)butanoyl]amino]butanoyl]-[Glu14,Arg17,Pro21,Pro27,Pro34,Glu35]-h-amylin (peptide)
peptide: K([γGlu-γGlu-C20 diacid])CNTATCATQRLAEFLRHSSPNFGAIPSSTNVGPETY-NH2
modifications: disulfide 2-7; N-terminus assumed
SMILES: CC[C@H](C)[C@H](NC(=O)[C@H](C)NC(=O)CNC(=O)[C@H](Cc1ccccc1)NC(=O)[C@H](CC(N)=O)NC(=O)[C@@H]1CCCN1C(=O)[C@H](CO)NC(=O)[C@H](CO)NC(=O)[C@H](Cc1c[nH]cn1)NC(=O)[C@H](CCCNC(=N)N)NC(=O)[C@H](CC(C)C)NC(=O)[C@H](Cc1ccccc1)NC(=O)[C@H](CCC(=O)O)NC(=O)[C@H](C)NC(=O)[C@H](CC(C)C)NC(=O)[C@H](CCCNC(=N)N)NC(=O)[C@H](CCC(N)=O)NC(=O)[C@@H](NC(=O)[C@H](C)NC(=O)[C@@H]1CSSC[C@H](NC(=O)[C@@H](N)CCCCNC(=O)CC[C@H](NC(=O)CC[C@H](NC(=O)CCCCCCCCCCCCCCCCCCC(=O)O)C(=O)O)C(=O)O)C(=O)N[C@@H](CC(N)=O)C(=O)N[C@@H]([C@@H](C)O)C(=O)N[C@@H](C)C(=O)N[C@@H]([C@@H](C)O)C(=O)N1)[C@@H](C)O)C(=O)N1CCC[C@H]1C(=O)N[C@@H](CO)C(=O)N[C@@H](CO)C(=O)N[C@H](C(=O)N[C@@H](CC(N)=O)C(=O)N[C@H](C(=O)NCC(=O)N1CCC[C@H]1C(=O)N[C@@H](CCC(=O)O)C(=O)N[C@H](C(=O)N[C@@H](Cc1ccc(O)cc1)C(N)=O)[C@@H](C)O)C(C)C)[C@@H](C)O
B5: N^ε1-[(4S)-4-carboxy-4-[[(4S)-4-carboxy-4-(19-carboxynonadecanoylamino)butanoyl]amino]butanoyl]-[Glu14,Arg17,Pro21,Pro27,His34,Glu35]-h-amylin (peptide)
peptide: K([γGlu-γGlu-C20 diacid])CNTATCATQRLAEFLRHSSPNFGAIPSSTNVGHETY-NH2
modifications: disulfide 2-7; N-terminus assumed
SMILES: CC[C@H](C)[C@H](NC(=O)[C@H](C)NC(=O)CNC(=O)[C@H](Cc1ccccc1)NC(=O)[C@H](CC(N)=O)NC(=O)[C@@H]1CCCN1C(=O)[C@H](CO)NC(=O)[C@H](CO)NC(=O)[C@H](Cc1c[nH]cn1)NC(=O)[C@H](CCCNC(=N)N)NC(=O)[C@H](CC(C)C)NC(=O)[C@H](Cc1ccccc1)NC(=O)[C@H](CCC(=O)O)NC(=O)[C@H](C)NC(=O)[C@H](CC(C)C)NC(=O)[C@H](CCCNC(=N)N)NC(=O)[C@H](CCC(N)=O)NC(=O)[C@@H](NC(=O)[C@H](C)NC(=O)[C@@H]1CSSC[C@H](NC(=O)[C@@H](N)CCCCNC(=O)CC[C@H](NC(=O)CC[C@H](NC(=O)CCCCCCCCCCCCCCCCCCC(=O)O)C(=O)O)C(=O)O)C(=O)N[C@@H](CC(N)=O)C(=O)N[C@@H]([C@@H](C)O)C(=O)N[C@@H](C)C(=O)N[C@@H]([C@@H](C)O)C(=O)N1)[C@@H](C)O)C(=O)N1CCC[C@H]1C(=O)N[C@@H](CO)C(=O)N[C@@H](CO)C(=O)N[C@H](C(=O)N[C@@H](CC(N)=O)C(=O)N[C@H](C(=O)NCC(=O)N[C@@H](Cc1c[nH]cn1)C(=O)N[C@@H](CCC(=O)O)C(=O)N[C@H](C(=O)N[C@@H](Cc1ccc(O)cc1)C(N)=O)[C@@H](C)O)C(C)C)[C@@H](C)O

Each binder was assayed against T1, human calcitonin receptor (assay: ratio of hCTR IC50 to hAmylin-R IC50 (reference: human amylin receptor)).
Summary of the method: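 Competition binding by SPA uses membrane preparations (35 ng/μL final) in pH 7.4 Hepes buffer with 1 mM CaCl2 and 5 mM MgCl₂. Incubation lasts 120 min at 25° C, and IC₅₀ comes from one-site fitting.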

Row | Binder | Ratio hCT/hAmylin binding
1 | B1 | 46.5
2 | B2 | 35.6
3 | B3 | 53.6
4 | B4 | 17.6
5 | B5 | 29.1

What follows are binders tested against T1, human calcitonin receptor (assay: SPA competition on BHK cell membranes, 125I-calcitonin as radioligand (Assay VII)).
Summary of the method: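 BHK hCTR membranes 35 ng/μL + SPA beads 0.05 mg/well; buffer 50 mM Hepes pH 7.4, 1 mM CaCl2, 5 mM MgCl₂, 0.1% OA, 0.02% Tween20. 120 min, 25° C., shaking. Scintillation count; IC50 by one-site binding competition.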

Row | Binder | IC50 [nM]
6 | B1 | 34.9
7 | B2 | 22.5
8 | B3 | 17.5
9 | B4 | 2.13
10 | B5 | 15.2
